Assay results from the DeepSol protein solubility set.

test: soluble on expression in E. coli; label from the status in PepcDB or PDB records

Sequence | soluble on expression in E. coli
MSDPSSINGGIVVAMTGKDCVAIACDLRLGSQSLGVSNKFEKIFHYGHVFLGITGLATDVTTLNEMFRYKTNLYKLKEERAIEPETFTQLVSSSLYERRFGPYFVGPVVAGINSKSGKPFIAGFDLIGCIDEAKDFIVSGTASDQLFGMCESLYEPNLEPEDLFETISQALLNAADRDALSGWGAVVYIIKKDEVVKRYLKMRQD | soluble
MSDPYPATEAHAQRAAKSPPKSLLDRLLSLVRREPEDREGIKAILEAAHERELLDAESYAMIKGALAVSERTVADIMVPRSRMDLLDISQPLPQLLATIIETAHSRFPVYEDDRDNIIGILLAKDLLRYMLEPALDIRSLVRPAVFIPEVKRLNVLLREFRASRNHLAIVIDEHGGISGLVTMEDVLEQIVGDIEDEFDEDEEESIFPEGENQWRLTASTDISHFNATFATDLPDDEYDSVGGWLGGQLGRIPRRGDSADHDGLHIEVVRADARRALWLRVRRNAGAQPPASAAE | soluble
MSDRVIIAGGGIGGLASALTLHQIGVPCVVYEAAREMRPLGVGINLQPNAVRELLDLGITEADLDGVGLPAKEWALVGLNGNDIYAEPRGKAAGYRWPQYAVHRGRFHMLLNDKVIERLGADAVQLGRRVTSYRKTADGVVATVEHADGGTSEVSGALLIGADGIHSAVRAQMHPNQPPIHWGGAVMWRGTTWGKPTRSGASFIGLGTHRHRVVIYPISHPDPATGLSMLNWIAEVTLDNAEGWKQQGWFRQVPTSEFAHHFDGWVWDWLDVPAMIREADSAYENPMIDRDPVATWRDGPVVLIGDAAHAMYPTGSNGGTQAIVDARELGAAMVAHGATEAALAAFDAKLCGPISQLILRNRGAGPFGLLNLVDERCGGTFDNIDDVIPPAERAAFMAGYKAAAGFAIDHLNAAPPTIAPGARVKESAAALEHHHHHH | not soluble
MSDSFGVYVHVPFCSSRCGYCDFNTYTPGELGGTASPESYLDALEKELELAAASGTTRPATTVFIGGGTPSMLGASGLTRVLSAVRNTIGIAPGAEVTTESNPETTSPEFFSELLDAGYNRISLGMQSASSSVLRVLERKHTPGRAFDAALEAMNAGFLHVNLDMIYGTPTETDDDVRLTLERALDTGVDHISAYSLIVEDGTAMARKVHKGQLPPPNEDVYADRYGLIDTALRAQGFDWYEVSNWAKPGGECQHNLGYWLDGDWWGAGPGAHSHIASRRFFNVKHPSTYAQHLADGQLPIKEEELLDSTERHEESVMLGLRLRQGLELSRFTEAERAVIEKYVGLKLLHIYDGRVASTLQGRLLIDGIIADILVAYLEHHHHHH | not soluble
MSDSQTLVVKLGTSVLTGGSRRLNRAHIVELVRQCAQLHAAGHRIVIVTSGAIAAGREHLGYPELPATIASKQLLAAVGQSRLIQLWEQLFSIYGIHVGQMLLTRADMEDRERFLNARDTLRALLDNNIVPVINENDAVATAEIKVGDNDNLSALAAILAGADKLLLLTDQKGLYTADPRRNPQAELIKDVYGIDDALRAIAGDSVSGLGTGGMSTKLQAADVACRAGIDTIIAAGSKPGVIGDVMEGISVGTLFHAQATPLENRKRWIFGAPPAGEITVDEGATAAILERGSSLLPKGIKSVTGNFSRGEVIRICNLEGRDIAHGVSRYNSDALRRIAGHHSQEIDAILGYEYGPVAVHRDDMITR | not soluble
MSDYCSNDASPFGDYDLPSDEPSPKYQKLNKNIFSPLSPTFELKFQSKLRVSGNSTSSTTSDDSDDESLHRSNQLKHLETLFKESILRTSFSRPGVSNTSCDEKLDLVSEDEKKRLRNTEAARRCREKIKRKTDDLETELTRLTARNEVMNQHRIRLLSQVEEQMRMLENIKSRNPELEAEIRYEAKKIVDTYTHQVETKRKAIQDYFDMTCNKLY | not soluble
MSDYSAKPSGSLARIGDYDLSSDDSDQNDEDETLIASKTIQTGAVQVNDIAVAEASPAETDAKSSASPVSGPEPPTSAVVENRDLDEFKKESGSNDDKQEEINEDKDSNEETVFQQTESGSADVVDKTDVKQKDSDSSADDDHSHSKSGSVHSPQKPQGSTTPCSVQSPASPVGDEQAVKMEEVEEPIVASEEVPDKKPESVKESTDSESSGSEHGFEKMDTAEKVEDECNDDEVAASNGTEEPEPGDKAADTVNPWETPRQEPVDGVVQPRTEPPAGKPTRHTNCLDFVLFTVVKDALKHKHSWPFQLPVDAIKLEIPEYHNIVNTPMDLRTIEKRLRNLYYWCAEDAIKDLNTLFDNCKKFNDRNDDIYIMCENIEGVVQRGLEWMPSEEKPADLADHHRRGMFSASTPSGKTKGPKQRGRKSTRGRKKTSLPRGASTFKDESVDDNNDDESSKVDSINFDDDDDTATEKDAESRAESVQPEVVNEEPKPSTSQPPSKKRKAENGEPAVAVKIATPATPVAAHPQEETPRRKNPNTLIEWKHLVPRWQGKIPEWQKFCSKLLNEIHSVKNKGFAQVFYLPVDPIKLKIYDYLEVITNPMDLQTIKKKLDFKQYAEPEEFVHDINLMVDNCCKYNPKGSPAHSNALELRSFFEQRWKLFPRPGVDPIIADSYINQNLVVNTDLIEDERINSYLSAVKAEEKKCAEKLEQLRSMSEGLYTIAMQRREAKLAGNTAPALAQNQLSQLEGLGISIKSTPMMIPELISPALSVRSSSRAPVPKIIDDIGPSPIKARKISKPRASMASNVSVPYTPTGNPRGRKPKKSGRPKKNIYSPATVSERISQQPPFEVTPYVSIYGRKVVGTNDKIELSERMASIPQMYITPILRIIQIGHHNTGKTITSLRSLCEEEIDFNDVSDDLVIELLDYLEMIQKDKAKAEQVRQELEVKAKFYGFEAYDNKLGTIPKTRNMPPPLQHRMRSDSPSPSASRTGNQSSDSDSASDDSSDDEPSRSNSNVAGPRRALELSGNSSSASTPAGPSKAQPAVVRPSSKSVASKPAYTKRTLSESSSSSDSNGSSSDSSDSDSEPS | not soluble
MSECSASTSQLSTFCVNEIPWKLVPQTCDEFSEYEFIDEKYRRLSDVESFVWKWSPCGRYGIDLPGGRDVINQQLRDRMAVFDLHTNKWTLYTMDRGAFEIPRVCFLYWARNDIIGTITLVKDYEAGPDDEIPLKFKQSFFYVSHETQTLVYSGSCKYRTNKTIVASYWYHIFENRRGEPFIDHNNYLWLVFSNGVDSLILLPFIPTSTCFKAKCVSFDMNDIVSQFTGIRVFLDPFVSSHYVPWVYRNDVNFFIRIDSHSFIEEQNRDYGLDPQIDNPETKPHRGVFQLRVNLKDVIEKGEKDAIHAVNPETIETRFNRGDIELWRKISDELRQEHQSIAQHGKMVVVQRWSHFTVDMGLSKKMRTRVADLDARDYCCSHKPRNSSFCCIDLDSERIKAVDALILGTDVVLPHPSGSVFLFRYKENYGMSYCELPFFQPLSLKLKCIQVLKESVEIDPSYYRIKCCLKMQEELEKETAENLCTINIQQ | not soluble
MSEDLNAGPKVNREFKNSVFTLLFNEVEAIRDIAGAVGAMLGKEINPDTPIKKTTLQNALLGGKLNDLSFVLDDKLIVLIEHQSTINKNMPLRMLHYISEIYNRLYDKKDLYKREKISIPKPVFIVLYNGEEDIKDFEEYLLSDLFKDFDISKEPPCLELRVQVRNINKGHSAEIVKQSPLLRDYVAFVEEVREANREEGASPELAMEKAVENCIKKGILTIFLTRHKEEVIKMLVAEWDYELDLEVAKEEAHEKGLSQGRDEERRKNIKDLYRIGVGIETIAKAFDLSERQVKDILGL | not soluble
MSEDQMKQQLVIDQKAVKETLQQMLTSDQGKKFWESALKDPKFAESFAKGLQAEHEKMMKALMKDPDYQALMIDILKDPEMEKAMVDVLKSKEFRQHLQKVITETLNSPLYQAKIQDMLMKAAEKVQQGGEKQEEEGGGEGGEGEGEESTGNQQGGGG | not soluble
MSEEGPQVKIREASKDNVDFILSNVDLAMANSLRRVMIAEIPTLAIDSVEVETNTTVLADEFIAHRLGLIPLQSMDIEQLEYSRDCFCEDHCDKCSVVLTLQAFGESESTTNVYSKDLVIVSNLMGRNIGHPIIQDKEGNGVLICKLRKGQELKLTCVAKKGIAKEHAKWGPAAAIEFEYDPWNKLKHTDYWYEQDSAKEWPQSKNCEYEDPPNEGDPFDYKAQADTFYMNVESVGSIPVDQVVVRGIDTLQKKVASILLALTQMDQDKVNFASGDNNTASNMLGSNEDVMMTGAEQDPYSNASQMGNTGSGGYDNAW | soluble
